Reference: the Human Domainome abundance scans (Beltran et al. 2025)
± gives the uncertainty stated by the source.

B1: KAT8 regulatory NSL complex subunit 2, residues 28 to 91; numbered along this chain, Q9H9L4 (parent)
chain: CAFTHRPCSHPRLEGQEFCIKHILEDKNAPFKQCSYISTKNGKRCPNAAPKPEKKDGVSFCAEH

Variants of: B1
Test: abundance fitness (aPCA) (normalised: wild type 0, dead -1); higher = more abundant; growth selection in yeast, the domain comes from the species named
Conditions: Homo sapiens

Row | Variant | abundance fitness
1 | CAFTHRPCSHPRLEGQEFCIKHILEDKNAPFKQCSYISTKNGKRCPNAAPKMEKKDGVSFCAEH [P52M] | -0.024 ± 0.07
2 | CAFTHRPCSHPRLEGQEFCIKHILEDKNAPFKQCSYISTKNGKRCPNAAPKHEKKDGVSFCAEH [P52H] | -0.133 ± 0.07
3 | CAFTHRPCSHPRLEGQEFCIKHILEDKNAPFKQCSYISTKNGKRCPNAAPKEEKKDGVSFCAEH [P52E] | -0.066 ± 0.058
4 | CAFTHRPCSHPRLEGQEFCIKHILEDKNAPFKQCSYISTKNGKRCPNAAPKYEKKDGVSFCAEH [P52Y] | -0.29 ± 0.13
5 | CAFTHRPCSHPRLEGQEFCIKHILEDKNAPFKQCSYISTKNGKRCPNAAPKREKKDGVSFCAEH [P52R] | -0.144 ± 0.049
6 | CAFTHRPCSHPRLEGQEFCIKHILEDKNAPFKQCSYISTKNGKRCPNARPKPEKKDGVSFCAEH [A49R] | -0.332 ± 0.053
7 | CAFTHRPCSHPRLEGQEFCIKHILEDKNAPFKQCSYISTKNGKRCPNANPKPEKKDGVSFCAEH [A49N] | -0.143 ± 0.17
8 | CAFTHRPCSHPRLEGQEFCIKHILEDKNAPFKQCSYISTKNGKRCPNAVPKPEKKDGVSFCAEH [A49V] | 0.076 ± 0.078
9 | CAFTHRPCSHPRLEGQEFCIKHILEDKNAPFKQCSYISTKNGKRCPNAFPKPEKKDGVSFCAEH [A49F] | -0.124 ± 0.071
10 | CAFTHRPCSHPRLEGQEFCIKHILEDKNAPFKQCSYISTKNGKRCPNAEPKPEKKDGVSFCAEH [A49E] | -0.212 ± 0.17
11 | CAFTHRPCSHPRLEGQEFCIKHILEDKNAPFKQCSYISTKNGKRCPNAQPKPEKKDGVSFCAEH [A49Q] | -0.3 ± 0.066
12 | CAFTHRPCSHPRLEGQEFCIKHILEDKNAPFKQCSYISTKNGKRCPNACPKPEKKDGVSFCAEH [A49C] | -0.148 ± 0.091
13 | CAFTHRPCSHPRLEGQEFCIKHILEDKNAPFKQCSYISTKNGKRCPNAIPKPEKKDGVSFCAEH [A49I] | -0.076 ± 0.091
14 | CAFTHRPCSHPRLEGQEFCIKHILEDKNAPFKQCSYISTKNGKRCPNAGPKPEKKDGVSFCAEH [A49G] | -0.06 ± 0.057
15 | CAFTHRPCSHPRLEGQEFCIKHILEDKNAPFKQCSYISTKNGKRCPNAHPKPEKKDGVSFCAEH [A49H] | -0.147 ± 0.11
16 | CAFTHRPCSHPRLEGQEFCIKHILEDKNAPFKQCSYISTKNGKRCPNADPKPEKKDGVSFCAEH [A49D] | -0.339 ± 0.13
17 | CAFTHRPCSHPRLEGQEFCIKHILEDKNAPFKQCSYISTKNGKRCPNAWPKPEKKDGVSFCAEH [A49W] | -0.315 ± 0.067
18 | CAFTHRPCSHPRLEGQEFCIKHILEDKNAPFKQCSYISTKNGKRCPNAPPKPEKKDGVSFCAEH [A49P] | -0.219 ± 0.078
19 | CAFTHRPCSHPRLEGQEFCIKHILEDKNAPFKQCSYISTKNGKRCPNAYPKPEKKDGVSFCAEH [A49Y] | -0.261 ± 0.12
20 | CAFTHRPCSHPRLEGQEFCIKHILEDKNAPFKQCSYISTKNGKRCPNATPKPEKKDGVSFCAEH [A49T] | -0.005 ± 0.087
21 | CAFTHRPCSHPRLEGQEFCIKHILEDKNAPFKQCSYISTKNGKRCPNALPKPEKKDGVSFCAEH [A49L] | -0.094 ± 0.044

Row | Variant | abundance fitness
22 | CAFTHRPCSHPRLEGQEFCIKHILEDKNAPFKQCSYISTKNGKRCPNAKPKPEKKDGVSFCAEH [A49K] | -0.321 ± 0.077
23 | CAFTHRPCSHPRLEGQEFCIKHILEDKNAPFKQCSYISTKNGKRCPNAAKKPEKKDGVSFCAEH [P50K] | -0.176 ± 0.14
24 | CAFTHRPCSHPRLEGQEFCIKHILEDKNAPFKQCSYISTKNGKRCPNAAMKPEKKDGVSFCAEH [P50M] | -0.219 ± 0.13
25 | CAFTHRPCSHPRLEGQEFCIKHILEDKNAPFKQCSYISTKNGKRCPNAALKPEKKDGVSFCAEH [P50L] | -0.131 ± 0.069
26 | CAFTHRPCSHPRLEGQEFCIKHILEDKNAPFKQCSYISTKNGKRCPNAAQKPEKKDGVSFCAEH [P50Q] | -0.265 ± 0.2
27 | CAFTHRPCSHPRLEGQEFCIKHILEDKNAPFKQCSYISTKNGKRCPNAAAKPEKKDGVSFCAEH [P50A] | -0.213 ± 0.082
28 | CAFTHRPCSHPRLEGQEFCIKHILEDKNAPFKQCSYISTKNGKRCPNAARKPEKKDGVSFCAEH [P50R] | -0.106 ± 0.069
29 | CAFTHRPCSHPRLEGQEFCIKHILEDKNAPFKQCSYISTKNGKRCPNAAIKPEKKDGVSFCAEH [P50I] | -0.184 ± 0.078
30 | CAFTHRPCSHPRLEGQEFCIKHILEDKNAPFKQCSYISTKNGKRCPNAAHKPEKKDGVSFCAEH [P50H] | -0.135 ± 0.07
31 | CAFTHRPCSHPRLEGQEFCIKHILEDKNAPFKQCSYISTKNGKRCPNAAFKPEKKDGVSFCAEH [P50F] | -0.135 ± 0.062
32 | CAFTHRPCSHPRLEGQEFCIKHILEDKNAPFKQCSYISTKNGKRCPNAAGKPEKKDGVSFCAEH [P50G] | -0.211 ± 0.066
33 | CAFTHRPCSHPRLEGQEFCIKHILEDKNAPFKQCSYISTKNGKRCPNAAYKPEKKDGVSFCAEH [P50Y] | -0.249 ± 0.079
34 | CAFTHRPCSHPRLEGQEFCIKHILEDKNAPFKQCSYISTKNGKRCPNAAWKPEKKDGVSFCAEH [P50W] | -0.287 ± 0.098
35 | CAFTHRPCSHPRLEGQEFCIKHILEDKNAPFKQCSYISTKNGKRCPNAASKPEKKDGVSFCAEH [P50S] | -0.104 ± 0.054
36 | CAFTHRPCSHPRLEGQEFCIKHILEDKNAPFKQCSYISTKNGKRCPNAAVKPEKKDGVSFCAEH [P50V] | -0.204 ± 0.07
37 | CAFTHRPCSHPRLEGQEFCIKHILEDKNAPFKQCSYISTKNGKRCPNAANKPEKKDGVSFCAEH [P50N] | -0.126 ± 0.072
38 | CAFTHRPCSHPRLEGQEFCIKHILEDKNAPFKQCSYISTKNGKRCPNAACKPEKKDGVSFCAEH [P50C] | -0.1 ± 0.074
39 | CAFTHRPCSHPRLEGQEFCIKHILEDKNAPFKQCSYISTKNGKRCPNAAEKPEKKDGVSFCAEH [P50E] | 0.095 ± 0.2
40 | CAFTHRPCSHPRLEGQEFCIKHILEDKNAPFKQCSYISTKNGKRCPNAADKPEKKDGVSFCAEH [P50D] | -0.302 ± 0.098
41 | CAFTHRPCSHPRLEGQEFCIKHILEDKNAPFKQCSYISTKNGKRCPNWAPKPEKKDGVSFCAEH [A48W] | -0.333 ± 0.062
42 | CAFTHRPCSHPRLEGQEFCIKHILEDKNAPFKQCSYISTKNGKRCPNYAPKPEKKDGVSFCAEH [A48Y] | -0.167 ± 0.086
